These results are taken from US10792857B2, “Polymeric microneedles and rapid additive manufacturing of the same” (The University of North Carolina at Chapel Hill, priority 2015, dated 2020).

Series [1] can be described thus: Insulin release from CLIP fabricated PAA cylinders dissolved in water (sandwich ELISA). The format is physicochemical. The source says: Insulin (Sigma) was incorporated into test parts with identical dimensions described in FIG. 22A using CLIP and a resin containing 87.1 wt % acrylic acid monomer, 2.52 wt % DPO photo initiator, 10.4 wt % acetic acid, 0.17 wt % human insulin. Resin of an identical composition, excluding the […] insulin, was used as a negative control for insulin incorporation and release. Parts were fabricated using continuous printing on the CLIP7 apparatus (Carbon 3D) with a drawspeed of 100 mm/hr and 14.5 mW/cm2 light intensity. CLIP fabricated PAA parts were dissolved in 2 mL of water and the solution was then centrifuged at 20,000×g for 10 minutes to remove any insoluble material and insulin release was quantified using an sandwich ELIS A method (3A6 anti-insulin coating antibody, 8E2-HRP detection antibody from AbCam) combined with and an insulin standard curve. Insulin was readily detected in dissolved CLIP fabricated PAA cylinders made with insulin containing resin (FIG. 25) with an average of 0.5 unit/mL insulin (1 unit/cylinder), which was close to the theoretical insulin loading levels of 1 unit per cylinder based on PAA cylinder dry weight (20-22 mg). No insulin was detected in the supernatant of dissolved vehicle control cylinders (FIG. 25), validating the specificity of the ELISA-based insulin assay. […]
A general note: ELISA stands for enzyme-linked immunosorbent assay.

For series [2] the following is noted: value used for insulin loading calculation; cited from earlier work.
The nature of series [3]: OVA-647 release from CLIP fabricated PAA cylinders dissolved in water (fluorescence plate reader). The format is physicochemical. Conditions: PAA cylinder from resin with 0.01 wt % OVA-647, dissolved in 2 mL of water, versus vehicle control cylinders. From the text: Fluorescently labeled (Alexa Fluor® 647) model vaccine antigen ovalbumin (referred to as OVA-647) was incorporated into a PAA matrix using CLIP and a resin containing […] (Sigma), 2.3 wt % DPO photo initiator (Sigma), […], 0.01 wt % OVA-647 (Invitrogen). Resin of an identical composition, excluding the 0.01 wt % OVA-647, was used as a negative control for OVA-647 incorporation. The shape of the CLIP fabricated test parts was cylindrical with 3 mm diameter×3 mm height, containing a hollowed out center 1.5 mm diameter (FIG. 22A and FIG. 22B). Parts were fabricated using continuous printing on the CLIP7 apparatus (Carbon 3D) with a drawspeed of 100 mm/hr and 8.4 mW/cm2 light intensity. OVA-647 incorporation into CLIP fabricated PAA parts was confirmed using microscopy (FIG. 22C). The OVA-647 and vehicle control PAA cylinders were dissolved in 2 mL of water and the solution was then centrifuged at 20,000×g for 10 minutes to remove any insoluble material and OVA-647 release was measured using a fluorescence plate reader.
Referring to FIG. 23, vehicle PAA cylinders (containing 8.97 wt % water) or OVA-647 resin ([…] in water) were tested. Each bar represents an independent cylinder dissolved in 2 mL of water and the supernatant was measured for OVA-647 fluorescence. Values were normalized to a standard curve of soluble OVA-647. […]

Turning to “Insulin: Human insulin (Sigma) incorporated into CLIP fabricated PAA cylinders”, the “insulin release per cylinder” value in series [1] (PAA cylinder dissolved in 2 mL of water) was found to be 1 unit/cylinder. Further, the “insulin release, average concentration in dissolved cylinder solution” value in series [1] (PAA cylinder from resin with 0.17 wt % human insulin, dissolved in 2 mL of water) is on record as 0.5 unit/mL. For the same molecule, the max solubility in series [2] was 10000 µg/mL.

B1: OVA-647: Fluorescently labeled (Alexa Fluor 647) model vaccine antigen ovalbumin, incorporated into PAA cylinders (protein, UniProt P01012 2-386, looked up)
Ovalbumin: GSIGAASMEFCFDVFKELKVHHANENIFYCPIAIMSALAMVYLGAKDSTRTQINKVVRFDKLPGFGDSIEAQCGTSVNVHSSLRDILNQITKPNDVYSFSLASRLYAEERYPILPEYLQCVKELYRGGLEPINFQTAADQARELINSWVESQTNGIIRNVLQPSSVDSQTAMVLVNAIVFKGLWEKAFKDEDTQAMPFRVTEQESKPVQMMYQIGLFRVASMASEKMKILELPFASGTMSMLVLLPDEVSGLEQLESIINFEKLTEWTSSNVMEERKIKVYLPRMKMEEKYNLTSVLMAMGITDVFSSSANLSGISSAESLKISQAVHAAHAEINEAGREVVGSAEAGVDAASVSEEFRADHPFLFCIKHIATNAVLFFGRCVSP
modifications: Alexa Fluor 647 label
notes: Fluorescently labeled (Alexa Fluor 647) model vaccine antigen ovalbumin, incorporated into PAA cylinders
For the molecule B1, in series [3], the “OVA-647 release (fluorescence in supernatant)” value was “readily detected above background florescence levels”.
